According to article PMC9242591 (Science Advances, 2022):

T1: His-tagged NIN-LIKE PROTEIN 7 (His-NLP7) (Arabidopsis thaliana, UniProt Q84TH9 1-959)
T1 sequence (looked up): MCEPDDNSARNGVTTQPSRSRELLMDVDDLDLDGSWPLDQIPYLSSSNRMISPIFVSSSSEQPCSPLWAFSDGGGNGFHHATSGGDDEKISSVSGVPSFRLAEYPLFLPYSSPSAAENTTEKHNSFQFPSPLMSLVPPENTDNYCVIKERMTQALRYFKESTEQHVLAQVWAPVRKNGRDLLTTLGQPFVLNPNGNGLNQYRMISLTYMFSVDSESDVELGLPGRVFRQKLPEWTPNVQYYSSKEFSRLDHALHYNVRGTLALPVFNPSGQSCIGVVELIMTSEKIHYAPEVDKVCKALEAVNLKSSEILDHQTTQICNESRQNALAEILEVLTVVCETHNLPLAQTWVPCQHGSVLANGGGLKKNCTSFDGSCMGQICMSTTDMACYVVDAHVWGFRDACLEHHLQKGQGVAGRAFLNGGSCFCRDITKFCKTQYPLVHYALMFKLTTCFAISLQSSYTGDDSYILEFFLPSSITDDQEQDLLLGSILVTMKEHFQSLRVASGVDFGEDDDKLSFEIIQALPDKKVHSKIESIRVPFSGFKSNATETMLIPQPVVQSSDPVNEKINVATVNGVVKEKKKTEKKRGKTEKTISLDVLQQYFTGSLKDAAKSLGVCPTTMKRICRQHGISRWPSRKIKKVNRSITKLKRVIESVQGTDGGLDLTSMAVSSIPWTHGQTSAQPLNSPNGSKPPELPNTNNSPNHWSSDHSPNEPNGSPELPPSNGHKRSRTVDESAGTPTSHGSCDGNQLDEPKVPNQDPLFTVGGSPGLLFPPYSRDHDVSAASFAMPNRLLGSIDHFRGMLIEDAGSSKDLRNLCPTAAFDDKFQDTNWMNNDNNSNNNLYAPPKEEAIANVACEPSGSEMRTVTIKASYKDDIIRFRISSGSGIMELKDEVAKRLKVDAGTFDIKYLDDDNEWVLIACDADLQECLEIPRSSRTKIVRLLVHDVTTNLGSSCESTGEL


Columns and labels:
[1] = target: His-NLP7 (RWP-RK) (Arabidopsis thaliana, UniProt Q84TH9 535-733); assay: EMSA
[2] = target: T1, His-tagged NIN-LIKE PROTEIN 7 (His-NLP7); assay: pull-down

binding result [2] | Binder | binding result [1]
 | CBF1-NREL probe (dsDNA) DNA 1: AAAAGTCTCTTTACAAGGGTCAAA DNA 2: TTTGACCCTTGTAAAGAGACTTTT | binds
binds | GST-tagged CALCIUM-DEPENDENT PROTEIN KINASE 28 (GST-CPK28) (enzyme, Arabidopsis thaliana, UniProt Q9FKW4 1-523, looked up) MGVCFSAIRVTGASSSRRSSQTKSKAAPTPIDTKASTKRRTGSIPCGKRTDFGYSKDFHDHYTIGKLLGHGQFGYTYVAIHRPNGDRVAVKRLDKSKMVLPIAVEDVKREVQILIALSGHENVVQFHNAFEDDDYVYIVMELCEGGELLDRILSKKGNRYSEKDAAVVVRQMLKVAGECHLHGLVHRDMKPENFLFKSAQLDSPLKATDFGLSDFIKPGKRFHDIVGSAYYVAPEVLKRRSGPESDVWSIGVITYILLCGRRPFWDRTEDGIFKEVLRNKPDFSRKPWATISDSAKDFVKKLLVKDPRARLTAAQALSHAWVREGGNATDIPVDISVLNNLRQFVRYSRLKQFALRALASTLDEAEISDLRDQFDAIDVDKNGVISLEEMRQALAKDLPWKLKDSRVAEILEAIDSNTDGLVDFTEFVAAALHVHQLEEHDSEKWQLRSRAAFEKFDLDKDGYITPEELRMHTGLRGSIDPLLDEADIDRDGKISLHEFRRLLRTASISSQRAPSPAGHRNLR | 
